Assay [1] has as its target T1, tumor necrosis factor alpha (TNFα) (human, UniProt P01375 77-233). Briefly: affinity by IC50 ELISA (so named in paragraph 380).
The target in assay [2] is T1, tumor necrosis factor alpha (TNFα). The assay can be described thus: Biacore (SPR); MAb captured by immobilised goat anti-human IgG polyclonal antibody, TNFα as analyte.
The target is the same in assay [3]. The assay can be described thus: cell-based or functional assay.
The target is the same in assay [4]. Briefly: affinity by IC50 ELISA (so named in paragraph 380). This is another data set of the same source.
For assay [5] the target is unchanged. The assay can be described thus: affinity by IC50 ELISA (so named in paragraph 380). This is another data set of the same source.

Like-named read-outs stand apart in the source and are kept apart here.

T1 sequence (P01375 77-233 limits assumed): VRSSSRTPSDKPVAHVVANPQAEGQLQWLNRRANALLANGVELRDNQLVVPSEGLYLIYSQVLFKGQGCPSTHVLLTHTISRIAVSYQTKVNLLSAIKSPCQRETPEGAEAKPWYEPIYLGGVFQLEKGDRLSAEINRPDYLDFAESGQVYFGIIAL

In assay [1], Humira® (antibody) came in with an Affinity of 0.09 nM. In assay [2], this molecule registered a Ka of 3.31e+10 M⁻¹ and a Kd of 0.0303 nM.

B1: MAb 2090 (antibody, V domains shown)
VH: EVQLVESGGGLIQPGGSLRLSCAVSGLNVSRDYMSWVRQAPGKGLEWISVIYRIGATMYADSVKGRFTISRDTSKNTVFLQMSRLKVADTAVYYCARNYYGSTLDYWGQGTLVTVSS
VL: EIVLTQSPATLSVSPGERASLSCRASQNIYTAVAWYQQKPGQAPRLLIYNAATRATGIPARFSGGGSGTDYTLTISSLESEDFAVYHCQQWHSWPLTFGGGTKLEIK
notes: IgG1/kappa, CHO; also called H1813/L472
In the case of B1, the “IC50, TNFα cytotoxicity assay (WEHI-13VAR cells)” value in assay [3] is 0.09 nM. The Affinity in assay [4] was 0.02 nM. The Affinity in assay [5] stood at 0.02 nM. Also, in assay [2], the Ka was 1.2e+11 M⁻¹, the Kd came to 0.0084 nM, the koff was 5.42e-05 s⁻¹ and the association rate constant (kon) was determined as 6.49e+06 M⁻¹ s⁻¹.

Values taken from patent US20080267974A1 (SCHERING, published 2008).
